Results from patent publication US20050282752A1.

How the values were obtained:
[1] = target: biotinylated human IL-1RI (human) (UniProt P14778); test: IGEN (ECL) competition, inhibition of IL-1 signaling complex formation; settings: ligand
[2] = target: biotinylated human IL-1RI (human) (UniProt P14778); test: IGEN (ECL) competition, inhibition of IL-1 signaling complex formation; concentrated stock; settings: ligand

Sequence of biotinylated human IL-1RI (human) (P14778 18-336): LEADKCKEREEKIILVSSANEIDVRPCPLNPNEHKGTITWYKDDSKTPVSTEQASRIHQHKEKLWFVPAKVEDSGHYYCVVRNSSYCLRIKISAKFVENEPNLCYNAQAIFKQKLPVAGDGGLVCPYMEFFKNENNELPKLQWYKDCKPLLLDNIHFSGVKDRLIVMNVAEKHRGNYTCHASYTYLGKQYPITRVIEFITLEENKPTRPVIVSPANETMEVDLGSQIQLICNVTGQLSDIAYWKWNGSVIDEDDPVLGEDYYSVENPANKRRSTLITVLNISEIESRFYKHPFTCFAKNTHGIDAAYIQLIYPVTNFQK

IL-1ra K93A mutant protein (from UniProt P18510 26-177)
EC50 [1]: 0.562 nM
EC50 [2]: 0.873 nM
